Measured values published in patent US20250170227A1.

Legend:
C1s [1] = assay: C1s activity inhibition
C1s [2] = assay: C1s activity inhibition; 20x periodate
C1s [3] = assay: C1s activity inhibition; 10x periodate
C1s [4] = assay: C1s activity inhibition; 40x periodate

Cinryze
IC50 (C1s [1]): 1.49 nM

Cinryze-5k-20x
IC50 (C1s [2]): 2.26 nM

Cinryze-5k-10x
IC50 (C1s [3]): 1.45 nM

Cinryze-PEG5k-40x
IC50 (C1s [4]): 2.7 nM
